# doi:10.1101/2021.02.28.432901
# T1: SWELL1 (LRRC8a, Leucine-Rich Repeat Containing Protein 8a), Q80WG5
# T1 chain: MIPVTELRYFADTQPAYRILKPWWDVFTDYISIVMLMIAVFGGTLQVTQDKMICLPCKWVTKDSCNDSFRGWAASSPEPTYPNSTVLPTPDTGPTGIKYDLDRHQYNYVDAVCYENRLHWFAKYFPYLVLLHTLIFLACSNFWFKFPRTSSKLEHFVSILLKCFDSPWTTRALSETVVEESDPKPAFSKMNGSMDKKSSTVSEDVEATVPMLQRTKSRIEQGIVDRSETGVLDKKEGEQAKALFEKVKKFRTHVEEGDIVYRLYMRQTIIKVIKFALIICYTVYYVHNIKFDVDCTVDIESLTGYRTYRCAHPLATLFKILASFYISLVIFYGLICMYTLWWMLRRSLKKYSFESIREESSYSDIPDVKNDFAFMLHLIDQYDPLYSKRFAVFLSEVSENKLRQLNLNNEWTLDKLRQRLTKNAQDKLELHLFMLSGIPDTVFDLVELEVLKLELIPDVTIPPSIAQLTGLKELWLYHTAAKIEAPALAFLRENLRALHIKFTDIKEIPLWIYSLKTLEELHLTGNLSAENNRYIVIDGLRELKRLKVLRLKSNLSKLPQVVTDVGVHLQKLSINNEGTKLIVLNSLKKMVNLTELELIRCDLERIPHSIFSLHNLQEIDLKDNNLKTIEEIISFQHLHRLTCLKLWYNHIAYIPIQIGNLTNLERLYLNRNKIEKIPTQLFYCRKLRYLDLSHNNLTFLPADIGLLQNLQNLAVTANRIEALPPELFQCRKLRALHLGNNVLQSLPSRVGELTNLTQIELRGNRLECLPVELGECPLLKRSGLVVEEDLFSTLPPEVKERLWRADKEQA
# Molecular target: T1, SWELL1 (LRRC8a, Leucine-Rich Repeat …)
# Assay: cryo-EM structure
# Conditions: remark: other sources report otherwise
binder,measurement,value
"SWELL1 (LRRC8a, Leucine-Rich Repeat Containing Protein 8a), Q80WG5 1-810 (natural protein) MIPVTELRYFADTQPAYRILKPWWDVFTDYISIVMLMIAVFGGTLQVTQDKMICLPCKWVTKDSCNDSFRGWAASSPEPTYPNSTVLPTPDTGPTGIKYDLDRHQYNYVDAVCYENRLHWFAKYFPYLVLLHTLIFLACSNFWFKFPRTSSKLEHFVSILLKCFDSPWTTRALSETVVEESDPKPAFSKMNGSMDKKSSTVSEDVEATVPMLQRTKSRIEQGIVDRSETGVLDKKEGEQAKALFEKVKKFRTHVEEGDIVYRLYMRQTIIKVIKFALIICYTVYYVHNIKFDVDCTVDIESLTGYRTYRCAHPLATLFKILASFYISLVIFYGLICMYTLWWMLRRSLKKYSFESIREESSYSDIPDVKNDFAFMLHLIDQYDPLYSKRFAVFLSEVSENKLRQLNLNNEWTLDKLRQRLTKNAQDKLELHLFMLSGIPDTVFDLVELEVLKLELIPDVTIPPSIAQLTGLKELWLYHTAAKIEAPALAFLRENLRALHIKFTDIKEIPLWIYSLKTLEELHLTGNLSAENNRYIVIDGLRELKRLKVLRLKSNLSKLPQVVTDVGVHLQKLSINNEGTKLIVLNSLKKMVNLTELELIRCDLERIPHSIFSLHNLQEIDLKDNNLKTIEEIISFQHLHRLTCLKLWYNHIAYIPIQIGNLTNLERLYLNRNKIEKIPTQLFYCRKLRYLDLSHNNLTFLPADIGLLQNLQNLAVTANRIEALPPELFQCRKLRALHLGNNVLQSLPSRVGELTNLTQIELRGNRLECLPVELGECPLLKRSGLVVEEDLFSTLPPEVKERLWRADKEQA",stoichiometry N,6
